Assay results published in PMC11797056, “The ATPase activity of yeast chromosome axis protein Hop1 affects the frequency of meiotic crossovers” (Nucleic Acids Research, 2024).

T1: Hop1 K65A,N67Q (Saccharomyces cerevisiae, UniProt P20050 1-605, K65A;N67Q)
T1 sequence: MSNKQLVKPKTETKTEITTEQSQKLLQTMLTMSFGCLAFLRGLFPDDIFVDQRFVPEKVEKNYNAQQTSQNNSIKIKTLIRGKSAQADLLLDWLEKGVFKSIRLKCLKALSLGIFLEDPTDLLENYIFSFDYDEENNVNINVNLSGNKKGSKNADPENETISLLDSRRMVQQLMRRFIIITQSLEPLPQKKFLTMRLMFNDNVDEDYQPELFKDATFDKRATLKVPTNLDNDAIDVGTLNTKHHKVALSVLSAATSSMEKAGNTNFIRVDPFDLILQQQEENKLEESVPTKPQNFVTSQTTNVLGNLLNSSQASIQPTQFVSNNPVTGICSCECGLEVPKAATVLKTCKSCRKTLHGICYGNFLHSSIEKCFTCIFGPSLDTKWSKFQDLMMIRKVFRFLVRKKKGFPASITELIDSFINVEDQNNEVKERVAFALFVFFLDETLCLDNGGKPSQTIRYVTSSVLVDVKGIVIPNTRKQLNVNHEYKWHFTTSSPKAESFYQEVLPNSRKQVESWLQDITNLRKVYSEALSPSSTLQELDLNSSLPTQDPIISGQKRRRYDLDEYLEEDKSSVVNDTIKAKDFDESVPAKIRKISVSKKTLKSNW

B1: Holliday junction (HJ), 6-FAM (structured_DNA)
DNA 1: GACGCTGCCGAATTCTACCAGTGCCTTGCTAGGACATCTTTGCCCACCTGCCGGTTCACCC
DNA 2: TGGGTGAACCTGCAGGTGGGCAAAGATGTCCTAGCAATGTAATCGTCAAAGCTTTATGCCGTT
DNA 3: CAACGGCATAAAGCTTGACGATTACATTGCTAGGACATGCTGTCTAGAGGATCCGACTATCGA
DNA 4: ATCGATAGTCGGATCCTCTAGACAGCATGTCCTAGCAAGGCACTGGTAGAATTCGGCAGCGT
B2: Holliday junction (HJ), 32P (structured_DNA)
DNA 1: B1 DNA 1
DNA 2: B1 DNA 2
DNA 3: B1 DNA 3
DNA 4: B1 DNA 4

Columns and labels:
[1] = target: T1, Hop1 K65A,N67Q; experiment: MST; 25 nM HJ; EMSA: 25 mM HEPES pH 7.5, 0.5 nM 32P-HJ, 37 C 15 min, 8% PAGE in TBE (25 mM Tris base pH 8.0, 25 mM boric acid, 0.5 mM EDTA) at 4 C; MST: 25 nM 6-FAM HJ, buffer not in material; details: protein: recombinant; tags: His6 (pET28a); label: 5'-6FAM on HJ02; four-way junction of 4 strands
[2] = target: T1, Hop1 K65A,N67Q; experiment: EMSA; 0.5 nM HJ; EMSA: 25 mM HEPES pH 7.5, 0.5 nM 32P-HJ, 37 C 15 min, 8% PAGE in TBE (25 mM Tris base pH 8.0, 25 mM boric acid, 0.5 mM EDTA) at 4 C; MST: 25 nM 6-FAM HJ, buffer not in material; details: protein: recombinant; tags: His6 (pET28a); label: 5'-32P on HJ02; four-way junction of 4 strands

| Binder | Kd [1] [nM] | binding signal [2] |
| --- | --- | --- |
| B1 | 495 |  |
| B2 |  | ~1.7 fold lower affinity than WT |
